Reference: US20100047163A1

Columns and labels:
[1] = biological target: LDL receptor (LDLR) on human glioblastoma multiforme cells (human) (UniProt P01130); test: ^125I-LDL saturation binding to A-172 cells
[2] = biological target: LDL receptor (LDLR) on human glioblastoma multiforme cells (human) (UniProt P01130); test: ^125I-LDL saturation binding to SF-539 cells
[3] = biological target: LDL receptor (LDLR) on human glioblastoma multiforme cells (human) (UniProt P01130); test: ^125I-LDL saturation binding to SF-763 cells
[4] = biological target: LDL receptor (LDLR) on human glioblastoma multiforme cells (human) (UniProt P01130); test: ^125I-LDL saturation binding to SF-767 cells
[5] = biological target: LDL receptor (LDLR) on human glioblastoma multiforme cells (human) (UniProt P01130); test: ^125I-LDL saturation binding to U-343 MG cells
[6] = biological target: LDL receptor (LDLR) on human glioblastoma multiforme cells (human) (UniProt P01130); test: ^125I-LDL saturation binding to U-251 MG cells (average of 2 experiments)

- Bmax (ng/mg cell protein) [1]: 1400
- Bmax (ng/mg cell protein) [2]: 310
- Bmax (ng/mg cell protein) [3]: 900
- Bmax (ng/mg cell protein) [4]: 793
- Bmax (ng/mg cell protein) [5]: 510
- Bmax (ng/mg cell protein) [6]: 225
Substance: native plasma LDL (low density lipoprotein; LDLR ligand apoB100 on its surface), P04114 28-4563
